Conditions: Escherichia coli (strain K12), pH 7.6, Thermal, MOPS 25 mM, Potassium chloride 100 mM, whole UniProt chain shown

B1: Ribose import binding protein RbsB wild type, P02925 (protein)
chain: MNMKKLATLVSAVALSATVSANAMAKDTIALVVSTLNNPFFVSLKDGAQKEADKLGYNLVVLDSQNNPAKELANVQDLTVRGTKILLINPTDSDAVGNAVKMANQANIPVITLDRQATKGEVVSHIASDNVLGGKIAGDYIAKKAGEGAKVIELQGIAGTSAARERGEGFQQAVAAHKFNVLASQPADFDRIKGLNVMQNLLTAHPDVQAVFAQNDEMALGALRALQTAGKSDVMVVGFDGTPDGEKAVNDGKLAATIAQLPDQIGAKGVETADKVLKGEKVQAKYPVDLKLVVKQ
With B1 as the protein, how does the Tm (Activity) read?
The Tm was 62.6 °C.

What about the Tm (Quantitative cysteine reactivity) of the same protein?
The Tm was 62.6 °C.

From FireProtDB (doi:10.1073/pnas.0910421107)
